Here are results for 7 molecules from patent US7067474B1, “Agents for treating human illnesses based on β-catenin, and the production and use thereof” (Max-Delbruck-Centrum fur Molekulare Medizin, priority 1998, dated 2006).

What all share (test): yeast 2-hybrid, β-galactosidase reporter; percent of wild type β-catenin
The target of assay [1] is E-cadherin amino acids Gln773-Asp884 (cytoplasmatic domain) fused to Lex-A (vector BTM 116) (UniProt P0A7C2 1-202; P09803 773-884). How it is done:
(§1) 4. Preparation and testing of mutants of β-catenin modulating the interaction with LEF-1, APC, conductin or E-cadherin The mutagenesis of β-catenin in the armadillo repeats 3–8 was carried out by means of the "mutagenesis kit" of the company Clontech according to the producer's record and the mutants were checked by sequencing (FIG. 5). In all mutants the original amino acid was substituted by alanine. For analyzing the interactions the cDNA of human β-catenin (armadillo repeat 3 up to the C-terminal end of the protein) coding for the amino acids Leu218–Leu7 µl or its mutants was cloned into the fusion vector for the activation domain of Gal-4 (pGAD424, Clontech). The cDNA for the binding domains of the interaction partners was cloned into the Lex-A fusion vector BTM 116. To this end, the cDNA of LEF-1 for the amino acids 1–99, conductin for the amino acids Ala342–ARG465; of human APC for the amino acids His1012–Glu1215 (APC 15 amino acid repeats) and for the amino acids Ser1259Asp 1400 (APC 20 amino acid repeats) and E-cadherin for the amino acids Gin773–Asp884 (cytoplasmatic domain) were amplified with the respective primers PCR. The interaction of the Lex-A hybrids with β-catenin and its mutants was quantified by means of the β-galactosidase reporter activity in the yeast 2-hybrid system (report: "Matchmaker". Clontech) (Tab. 2 and FIG. 6).

Assay [2] deals with human APC amino acids Ser1259-Asp1400 (APC 20 amino acid repeats) fused to Lex-A (vector BTM 116) (human).
The target in assay [3] is conductin amino acids Ala342-Arg465 fused to Lex-A (vector BTM 116) (UniProt P0A7C2).
Assay [4] deals with T1, LEF-1 amino acids 1-99 fused to Lex-A (vector BTM 116) (UniProt P0A7C2 1-202; P27782 1-99).
T1 construct: Order of the fusion follows the vector; also called LEF-1/TCF-4
On the procedure:
as §1

In assay [5] the target is human APC amino acids His1012-Glu1215 (APC 15 amino acid repeats) fused to Lex-A (vector BTM 116) (human).

B1: human β-catenin (Leu218-Leu781) mutant Arg 274 to alanine, Gal-4 activation domain fusion (other, not shown: large carriers; small tags and cut ends)
chain: LHNLSHHREGLLAIFKSGGIPALVKMLGSPVDSVLFYAITTLHNLLLHQEGAKMAVALAGGLQKMVALLNKTNVKFLAITTDCLQILAYGNQESKLIILASGGPQALVNIMRTYTYEKLLWTTSRVLKVLSVCSSNKPAIVEAGGMQALGLHLTDPSQRLVQNCLWTLRNLSDAATKQEGMEGLLGTLVQLLGSDDINVVTCAAGILSNLTCNNYKNKMMVCQVGGIEALVRTVLRAGDREDITEPAICALRHLTSRHQEAEMAQNAVRLHYGLPVVVKLLHPPSHWPLIKATVGLIRNLALCPANHAPLREQGAIPRLVQLLVRAHQDTQRRTSMGGTQQQFVEGVRMEEIVEGCTGALHILARDVHNRIVIRGLNTIPLFVQLLYSPIENIQRVAAGVLCELAQDKEAAEAIEAEGATAPLTELLHSRNEGVATYAAAVLFRMSEDKPQDYKKRLSVELTSSLFRTEPMAWNETADLGLDIGAQGEPLGYRQDDPSYRSFHSGGYGQDALGMDPMMEHEMGGHHPGADYPVDGLPDLGHAQDLMDGLPPGDSNQLAWFDTDL
For the molecule B1, the “share of the interaction with wild type β-catenin in percent” value (“share of the interaction … in percent” below) in assay [1] turned out to be 50%; in assay [2], 40%; in assay [3] it was 29%.

B2: human β-catenin (Leu218-Leu781) mutant His 470 to alanine, Gal-4 activation domain fusion (other, not shown: large carriers; small tags and cut ends)
chain: LHNLSHHREGLLAIFKSGGIPALVKMLGSPVDSVLFYAITTLHNLLLHQEGAKMAVRLAGGLQKMVALLNKTNVKFLAITTDCLQILAYGNQESKLIILASGGPQALVNIMRTYTYEKLLWTTSRVLKVLSVCSSNKPAIVEAGGMQALGLHLTDPSQRLVQNCLWTLRNLSDAATKQEGMEGLLGTLVQLLGSDDINVVTCAAGILSNLTCNNYKNKMMVCQVGGIEALVRTVLRAGDREDITEPAICALRALTSRHQEAEMAQNAVRLHYGLPVVVKLLHPPSHWPLIKATVGLIRNLALCPANHAPLREQGAIPRLVQLLVRAHQDTQRRTSMGGTQQQFVEGVRMEEIVEGCTGALHILARDVHNRIVIRGLNTIPLFVQLLYSPIENIQRVAAGVLCELAQDKEAAEAIEAEGATAPLTELLHSRNEGVATYAAAVLFRMSEDKPQDYKKRLSVELTSSLFRTEPMAWNETADLGLDIGAQGEPLGYRQDDPSYRSFHSGGYGQDALGMDPMMEHEMGGHHPGADYPVDGLPDLGHAQDLMDGLPPGDSNQLAWFDTDL
For the molecule B2, the “share of the interaction … in percent” value in assay [4] amounted to 2%; in assay [2] it was 47%; in assay [5] it was 60%.

B3: human β-catenin (Leu218-Leu781) mutant His 260 to alanine, Gal-4 activation domain fusion (other, not shown: large carriers; small tags and cut ends)
chain: LHNLSHHREGLLAIFKSGGIPALVKMLGSPVDSVLFYAITTLANLLLHQEGAKMAVRLAGGLQKMVALLNKTNVKFLAITTDCLQILAYGNQESKLIILASGGPQALVNIMRTYTYEKLLWTTSRVLKVLSVCSSNKPAIVEAGGMQALGLHLTDPSQRLVQNCLWTLRNLSDAATKQEGMEGLLGTLVQLLGSDDINVVTCAAGILSNLTCNNYKNKMMVCQVGGIEALVRTVLRAGDREDITEPAICALRHLTSRHQEAEMAQNAVRLHYGLPVVVKLLHPPSHWPLIKATVGLIRNLALCPANHAPLREQGAIPRLVQLLVRAHQDTQRRTSMGGTQQQFVEGVRMEEIVEGCTGALHILARDVHNRIVIRGLNTIPLFVQLLYSPIENIQRVAAGVLCELAQDKEAAEAIEAEGATAPLTELLHSRNEGVATYAAAVLFRMSEDKPQDYKKRLSVELTSSLFRTEPMAWNETADLGLDIGAQGEPLGYRQDDPSYRSFHSGGYGQDALGMDPMMEHEMGGHHPGADYPVDGLPDLGHAQDLMDGLPPGDSNQLAWFDTDL
B3: the “share of the interaction … in percent” value in assay [1] amounted to 100%; in assay [4], 50%; in assay [2], 40%; in assay [3] it was 10%; in assay [5] it was 100%.

B4: human β-catenin (Leu218-Leu781) mutant Arg 342 to alanine, Gal-4 activation domain fusion (other, not shown: large carriers; small tags and cut ends)
chain: LHNLSHHREGLLAIFKSGGIPALVKMLGSPVDSVLFYAITTLHNLLLHQEGAKMAVRLAGGLQKMVALLNKTNVKFLAITTDCLQILAYGNQESKLIILASGGPQALVNIMRTYTYEKLLWTTSAVLKVLSVCSSNKPAIVEAGGMQALGLHLTDPSQRLVQNCLWTLRNLSDAATKQEGMEGLLGTLVQLLGSDDINVVTCAAGILSNLTCNNYKNKMMVCQVGGIEALVRTVLRAGDREDITEPAICALRHLTSRHQEAEMAQNAVRLHYGLPVVVKLLHPPSHWPLIKATVGLIRNLALCPANHAPLREQGAIPRLVQLLVRAHQDTQRRTSMGGTQQQFVEGVRMEEIVEGCTGALHILARDVHNRIVIRGLNTIPLFVQLLYSPIENIQRVAAGVLCELAQDKEAAEAIEAEGATAPLTELLHSRNEGVATYAAAVLFRMSEDKPQDYKKRLSVELTSSLFRTEPMAWNETADLGLDIGAQGEPLGYRQDDPSYRSFHSGGYGQDALGMDPMMEHEMGGHHPGADYPVDGLPDLGHAQDLMDGLPPGDSNQLAWFDTDL
With B4, the “share of the interaction … in percent” value in assay [1] amounted to 41%; in assay [2], 29%; in assay [3] it was 20%.

B5: human β-catenin (Leu218-Leu781) mutant Lys 345 to alanine, Gal-4 activation domain fusion (other, not shown: large carriers; small tags and cut ends)
chain: LHNLSHHREGLLAIFKSGGIPALVKMLGSPVDSVLFYAITTLHNLLLHQEGAKMAVRLAGGLQKMVALLNKTNVKFLAITTDCLQILAYGNQESKLIILASGGPQALVNIMRTYTYEKLLWTTSRVLAVLSVCSSNKPAIVEAGGMQALGLHLTDPSQRLVQNCLWTLRNLSDAATKQEGMEGLLGTLVQLLGSDDINVVTCAAGILSNLTCNNYKNKMMVCQVGGIEALVRTVLRAGDREDITEPAICALRHLTSRHQEAEMAQNAVRLHYGLPVVVKLLHPPSHWPLIKATVGLIRNLALCPANHAPLREQGAIPRLVQLLVRAHQDTQRRTSMGGTQQQFVEGVRMEEIVEGCTGALHILARDVHNRIVIRGLNTIPLFVQLLYSPIENIQRVAAGVLCELAQDKEAAEAIEAEGATAPLTELLHSRNEGVATYAAAVLFRMSEDKPQDYKKRLSVELTSSLFRTEPMAWNETADLGLDIGAQGEPLGYRQDDPSYRSFHSGGYGQDALGMDPMMEHEMGGHHPGADYPVDGLPDLGHAQDLMDGLPPGDSNQLAWFDTDL
For B5, the “share of the interaction … in percent” value in assay [1] was determined as 27%; in assay [4] it was 38%; in assay [3] it was 22%.

B6: human β-catenin (Leu218-Leu781) mutant Arg 469 to alanine, Gal-4 activation domain fusion (other, not shown: large carriers; small tags and cut ends)
chain: LHNLSHHREGLLAIFKSGGIPALVKMLGSPVDSVLFYAITTLHNLLLHQEGAKMAVRLAGGLQKMVALLNKTNVKFLAITTDCLQILAYGNQESKLIILASGGPQALVNIMRTYTYEKLLWTTSRVLKVLSVCSSNKPAIVEAGGMQALGLHLTDPSQRLVQNCLWTLRNLSDAATKQEGMEGLLGTLVQLLGSDDINVVTCAAGILSNLTCNNYKNKMMVCQVGGIEALVRTVLRAGDREDITEPAICALAHLTSRHQEAEMAQNAVRLHYGLPVVVKLLHPPSHWPLIKATVGLIRNLALCPANHAPLREQGAIPRLVQLLVRAHQDTQRRTSMGGTQQQFVEGVRMEEIVEGCTGALHILARDVHNRIVIRGLNTIPLFVQLLYSPIENIQRVAAGVLCELAQDKEAAEAIEAEGATAPLTELLHSRNEGVATYAAAVLFRMSEDKPQDYKKRLSVELTSSLFRTEPMAWNETADLGLDIGAQGEPLGYRQDDPSYRSFHSGGYGQDALGMDPMMEHEMGGHHPGADYPVDGLPDLGHAQDLMDGLPPGDSNQLAWFDTDL
Take B6: the results for the “share of the interaction … in percent” value in assay [1] and in assay [4] were 50% and 17%, respectively.

B7: human β-catenin (Leu218-Leu781) mutant Lys 354 to alanine, Gal-4 activation domain fusion (other, not shown: large carriers; small tags and cut ends)
chain: LHNLSHHREGLLAIFKSGGIPALVKMLGSPVDSVLFYAITTLHNLLLHQEGAKMAVRLAGGLQKMVALLNKTNVKFLAITTDCLQILAYGNQESKLIILASGGPQALVNIMRTYTYEKLLWTTSRVLKVLSVCSSNAPAIVEAGGMQALGLHLTDPSQRLVQNCLWTLRNLSDAATKQEGMEGLLGTLVQLLGSDDINVVTCAAGILSNLTCNNYKNKMMVCQVGGIEALVRTVLRAGDREDITEPAICALRHLTSRHQEAEMAQNAVRLHYGLPVVVKLLHPPSHWPLIKATVGLIRNLALCPANHAPLREQGAIPRLVQLLVRAHQDTQRRTSMGGTQQQFVEGVRMEEIVEGCTGALHILARDVHNRIVIRGLNTIPLFVQLLYSPIENIQRVAAGVLCELAQDKEAAEAIEAEGATAPLTELLHSRNEGVATYAAAVLFRMSEDKPQDYKKRLSVELTSSLFRTEPMAWNETADLGLDIGAQGEPLGYRQDDPSYRSFHSGGYGQDALGMDPMMEHEMGGHHPGADYPVDGLPDLGHAQDLMDGLPPGDSNQLAWFDTDL
Turning to B7, the “share of the interaction … in percent” value came to 40% in assay [1], 38% in assay [4], 43% in assay [3] and 54% in assay [5].
